Patent US20230322924A1 (Janssen / Centocor, published 2023)
Numbering of substitutions follows the chain as printed. Names may count otherwise.

B1: C33B88 (antibody, IgG1, V domains shown)
VH: QVQLVQSGSELKKPGASVKVSCKASGYTLTRSAMNWVRQAPGQGLEWMGWINTNTGNPTYAQGFTGRFVFSLDTSVNTAYLLISSLKTEDTAVYYCASDILPGYHEDYWGQGTLVTVSS
VL: QSALTQPASVSGSPGQSITISCTGINSDVGSYDLVSWYQQHPGKAPKLLIYDGSERPSGVFGRFSGSKSDNTTSLTISGLQAEDEAAYYCCSYEVTTTYVVFGGGTKLTVL
notes: huIgG1 F405L; also called C33F93; C33H88/C33L61
B2: C33B96 (antibody, IgG1, V domains shown)
VH: EVQLVESGGGLVQPGGSLRLSCAASGFTFSSYWMTWVRPAPGKGLEWVANIKRDGGEKYYVDSVKGRFTISRDNAANSLYLQMNSLRVEDTAVYYCARPFYDHFDYWGQGTLVTVSS
VL: SYVLTQPPSVAVAPGQTARITCGGSNIGKISVHWYQQKAGQAPVLVVHDDRARPSGIPERLSGSNSGTTATLTISRVEVGDEADYYCQVWNSSSVHPVFGGGTKLTVL
notes: huIgG1 F405L; also called C33F101; C33H99/C33L37
B3: C33B107 (antibody, IgG1, V domains shown)
VH: EVQLLESGGGLVQPGGSLGLSCAASGFTFSGYAMSWVRQAPGKGLNWVSAIDYSGNDTYYADSVKGRFTISRDNSKNTLYLQMNSLRAEDTAVYYCAKESQLLHGLFEHWGQGILVTVSS
VL: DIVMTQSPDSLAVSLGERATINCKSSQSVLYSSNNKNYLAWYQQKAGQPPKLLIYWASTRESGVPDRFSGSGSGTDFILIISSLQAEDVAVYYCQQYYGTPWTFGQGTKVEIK
notes: huIgG1 F405L; also called C33F112; C33H68/C33L17
B4: C33B54 (antibody, IgG1, V domains shown)
VH: QVQLQQSGPGLVKPSQTLSLTCAISGDSVSSNSAAWNWIRQSPSRGLEWLGRTYYRSKWYNDYAVSVRSRITINPDTSKNQFSLQLNSVTPEDTAVYHCARETMFRGLMDYWGQGTLVTVSS
VL: SYVLTQPPSVSVAPGQTARITCGGSNIGSKSVHWYQQKPGQAPVMVVYDDSDRPSGIPERFSGSNSGNTATLTISRVEAGDEADYYCQVWDSSSDVVFGGGTKLTVL
notes: huIgG1 F405L; also called C33F59; C33H44/C33L10
B5: C33B89 (antibody, IgG1, V domains shown)
VH: B4 VH with V65L, R68Q, H98Y, T103V, M104A, F105V, R106A, G107A, L108S, M109F
VL: SYVLTQPPSVSVAPGQTARITCGGNNIGSKSVHWSQQKPGQAPVLVVYDDSDRPSGIPERFSGSNSGNTATLTISRVEAGDEADYYCQVWDSNSDHVVFGGGTKLTVL
notes: huIgG1 F405L; also called C33F94; C33H90/C33L51
B6: C33B909 (antibody, V domains shown)
VH: EVQLVESGGGLVQPGRSLRLSCVASGFTFDDYAIHWVRQAPGKGLEWVSGLSWNGGNIGYADSVKGRFTISRDNAKNSLYLQMNSLKTEDTAFYYCTKDTPYGDYFDYWGQGTLVTVSS
VL: DIQMTQSPSSVWASVGDRVTITCRASQGISSWLAWYQQQPGKAPNLLIYRSSSLQSGVPSRFSGSGSGTDFTLTISSLQPEDFATYYCQQDNSFPYTFGQGTKLEIK
notes: OMNIMouse-derived anti-CD33 mAb; same V regions as C33B901; The OMNIMouse mAbs were cloned into both IgG1 and IgG4 PAA; also called C33H249/C33L115
B7: C33B910 (antibody, V domains shown)
VH: B6 VH with V23A, A24G, M83L, T97A, T100S
VL: B6 VL with V11E, Q39K, N45K, R50G, S51A, L54W
notes: OMNIMouse-derived anti-CD33 mAb; same V regions as C33B902; also called C33H250/C33L116

target: Human CD33 ECD-HSA (human); experiment: SPRi off-rate screen (IBIS MX96), mAb captured by anti-human Fc; column head prints KD
Description: (§1) To begin assessing the biophysical binding properties of the purified mAbs an off-rate screen was performed. 76 OMNIRat anti-CD33 mAbs were tested for binding to recombinant human CD33 ECD-HSA (C33W2) and cyno CD33 ECD-HSA (C33W1) proteins (Janssen production) and the off-rate was measured by IBIS MX96 SPRi array platform (Carterra; Newton, PA). […] The sensor chip was transferred to the Continuous Flow Microspotter (CFM) unit to capture each anti-CD33 mAb at 10 μg/ml for 10 minutes. Binding was measured on IBIS SPRi by single cycle kinetics without regeneration. […] The raw binding data (.trix file format) were referenced and aligned using SprintX software (Wasatch, Ver 1.9.3.2), then exported (.ibmx file format) to Scrubber software (Ver. 2.0) for 1:1 binding kinetic analyses (Wasatch, version 2.0.0.33) to extract the koff results.

Sequence of Human CD33 ECD-HSA (human) (chain, as listed by the source): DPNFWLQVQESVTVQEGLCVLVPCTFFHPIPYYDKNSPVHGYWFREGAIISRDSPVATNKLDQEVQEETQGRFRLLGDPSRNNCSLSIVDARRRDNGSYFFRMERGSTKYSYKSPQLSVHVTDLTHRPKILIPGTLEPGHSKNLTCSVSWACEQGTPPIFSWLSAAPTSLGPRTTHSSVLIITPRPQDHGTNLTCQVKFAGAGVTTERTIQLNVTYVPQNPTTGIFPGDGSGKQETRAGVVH

| Binder | koff [s⁻¹] |
| --- | --- |
| B1 | 0.000825 |
| B2 | 0.000228 |
| B3 | 0.00444 |
| B4 | 0.0248 |
| B5 | 0.00811 |

target: T1, Human CD33 full length (human, UniProt P20138 18-364); experiment: flow cytometry on HEK293F cells expressing human CD33
T1 construct: also called huCD33
Description: (§2) The purified antibodies were assessed for binding to stably transfected HEK293F cells expressing human CD33 or cyno CD33 (generation described above) along with the parental HEK293F as negative control. Cells were harvested from tissue culture flasks using non-enzymatic dissociation buffer (Thermo Scientific). The flasks were rinsed twice with PBS and dissociation buffer was added to the flask, and the flask was incubated for 10 minutes at 37° C. until the cells became non-adherent. The cells were centrifuged at 300 g for 5 minutes and resuspended at 1.0×10⁶ cells/ml in staining buffer (Becton Dickinson; Franklin Lakes, NJ). 50,000 cells/well of each cell type was plated in 50 μl of staining buffer in round bottom plates (Becton Dickinson). […] 100 μl staining buffer was added to all wells of each plate, the plates were spun at 300 g for 5 min, the buffer was removed, 200 μl staining buffer was added to all wells of each plate, the plates were spun at 300 g for 5 min, and the buffer was removed. 50 μl of 2 μg/ml of Goat-anti-human Fc AF647 secondary antibody (Jackson Immunoresearch; West Grove, PA) was added to all wells of the plates, and the plates were incubated for 30 min at 4° C. 100 μl staining buffer was added to all wells of the plates, the plates were spun at 300 g for 5 min, and the buffer was removed. 200 μl running buffer (running buffer is Staining buffer, 1 mM EDTA, 0.1% Pluronic Acid) was added to all wells of the plates, the plates were spun at 300 g for 5 min, and the buffer was removed. 30 μl running buffer containing Sytox Green live/dead dye (ThermoFisher) was added to all wells with cells and the plates were read on an iQue IntelliCyt flow cytometer. Cells were gated on forward vs. side scatter to eliminate debris, then on singlets and then on live cells which excluded the Sytox stain. Antibody binding was assessed by the mean fluorescence intensity in the AF647 channel.
(§3) The OmniMouse panel (8 mAbs total) was generated separately and characterized further for binding to cells.

T1 sequence (P20138 18-364 limits assumed): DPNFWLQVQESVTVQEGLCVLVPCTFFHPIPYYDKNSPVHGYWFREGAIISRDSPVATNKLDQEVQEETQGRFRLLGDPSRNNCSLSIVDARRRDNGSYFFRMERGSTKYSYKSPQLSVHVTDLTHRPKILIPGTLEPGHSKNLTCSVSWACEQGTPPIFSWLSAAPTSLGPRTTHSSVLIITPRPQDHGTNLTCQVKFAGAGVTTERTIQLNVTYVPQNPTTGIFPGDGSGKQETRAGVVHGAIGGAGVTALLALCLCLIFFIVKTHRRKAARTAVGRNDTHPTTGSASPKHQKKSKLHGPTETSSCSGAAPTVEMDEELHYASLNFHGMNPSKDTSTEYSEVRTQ

| Binder | MFI at 0 nM (background) [MFI] | MFI at 0.6 nM [MFI] | MFI at 6 nM [MFI] | MFI at 60 nM [MFI] |
| --- | --- | --- | --- | --- |
| B6 | 191 | 154 | 170 | 176 |
| B7 | 155 | 151 | 183 | 214 |

target: T2, Cyno CD33 ECD-HSA (cynomolgus monkey); experiment: ProteOn SPR, mAb captured by anti-human Fc, 1:1 Langmuir fit
T2 construct: Cyno CD33 extracellular domain fused to monomeric human serum albumin and a six-histidine tag; also called C33W1
Description: (§4) The panel of mAbs was then further characterized for full affinity analysis as well as epitope binning. The binding of anti-CD33 mAbs to recombinant human CD33 ECD-HSA (C33W2) and cyno CD33 ECD-HSA (C33W1) was measured by ProteOn SPR (Bio-Rad). […] Different mAbs were captured on the anti-human Fc IgG surface at 0.25 or 0.5 μg/ml (160-300 RU) in vertical ligand orientation, with the 6th ligand channel as no ligand surface control. Human and cyno CD33-HSA proteins at 0.3 μM concentration in 3-fold dilution series of 5 concentrations flew in as analyte to bind to captured mAbs in the horizontal orientation. A buffer sample was also injected in the 6th channel to monitor the dissociation of captured mAb and baseline stability. […] The raw biding data were processed by double referencing after subtracting the response data from: 1) the inter-spot to correct for the non-specific interactions between the Ag and the empty chip surface; 2) the buffer channel to correct for baseline drifting due to the dissociation of captured mAb surface over time. The processed data at all antigen concentrations for each mAb were globally fit to a 1:1 simple Langmuir binding model to extract estimates of the kinetic (kₒₙ, koff) and affinity (Kd) constants.

| Binder | Kd [nM] | koff [s⁻¹] | kon [M⁻¹ s⁻¹] |
| --- | --- | --- | --- |
| B3 | 0.212 | 7.01e-05 | 331000 |
| B4 | 0.484 | 0.000637 | 1.32e+06 |
| B5 | 0.76 | 0.000201 | 265000 |

target: Human CD33 ECD-HSA (human); experiment: as above
Description: as §4

| Binder | Kd [nM] | koff [s⁻¹] | kon [M⁻¹ s⁻¹] |
| --- | --- | --- | --- |
| B2 | 1.92 | 0.000436 | 226000 |

target: T3, Cyno CD33 full length (cynomolgus monkey); experiment: flow cytometry on HEK293F cells expressing cyno CD33
T3 construct: also called cyCD33
Description: as §2, §3

| Binder | MFI at 0 nM (background) [MFI] | MFI at 0.6 nM [MFI] | MFI at 6 nM [MFI] | MFI at 60 nM [MFI] |
| --- | --- | --- | --- | --- |
| B6 | 124 | 116 | 135 | 180 |
| B7 | 176 | 117 | 135 | 202 |

target: T2, Cyno CD33 ECD-HSA; experiment: SPRi off-rate screen (IBIS MX96), mAb captured by anti-human Fc; column head prints Cyno CD33 binding KD
Description: as §1

| Binder | koff [s⁻¹] |
| --- | --- |
| B1 | 0.000389 |
| B2 | 0.000819 |
| B3 | 0.000135 |
| B4 | 0.000135 |
| B5 | 4.65e-05 |

target: T4, Human CD33 full length, expressed on HEK293F cells (human, UniProt P20138 18-364); experiment: flow cytometry, HEK293F cells expressing human CD33
T4 construct: HEK293F cells transduced with lentivirus containing full length human CD33; also called huCD33
Description: as §2, with “OMNIRat antibodies identified via immunization, v-region cloned and subsequently expressed and purified were characterized further for binding to CD33 expressing cells and binding to recombinant antigens. The purified” for “The purified”

T4 sequence (P20138 18-364 limits assumed): as above

| Binder | MFI at 0 nM mAb (background) [MFI] | MFI at 0.6 nM mAb [MFI] | MFI at 6 nM mAb [MFI] | MFI at 60 nM mAb [MFI] |
| --- | --- | --- | --- | --- |
| B1 | 94.8 | 274000 | 481000 | 393000 |
| B2 | 55.2 | 188000 | 476000 | 476000 |
| B3 | 86.5 | 161000 | 340000 | 375000 |
| B4 | 61.3 | 3770 | 27500 | 148000 |

target: T5, Cyno CD33 full length, expressed on HEK293F cells (cynomolgus monkey); experiment: flow cytometry, HEK293F cells expressing cyno CD33
T5 construct: HEK293F cells transduced with lentivirus containing full length cyno CD33 (Genbank XP_005590138.1); also called cyCD33
Description: as §2, with “OMNIRat antibodies identified via immunization, v-region cloned and subsequently expressed and purified were characterized further for binding to CD33 expressing cells and binding to recombinant antigens. The purified” for “The purified”

| Binder | MFI at 0 nM mAb (background) [MFI] | MFI at 0.6 nM mAb [MFI] | MFI at 6 nM mAb [MFI] | MFI at 60 nM mAb [MFI] |
| --- | --- | --- | --- | --- |
| B1 | 90.1 | 43900 | 43900 | 50400 |
| B2 | 86.3 | 11600 | 20100 | 37300 |
| B3 | 55.1 | 36800 | 47800 | 50300 |
| B4 | 28800 | 38100 | 43000 | 50500 |
| B5 | 113 | 23300 | 34200 | 47300 |
